Measurements: patent publication US20100036111
Read-outs that look alike come from different tables or passages of the source.

Assays:
[1] = biological target: Klenow fragment exo- (KF exo-) (UniProt P00582); details: n=Ds (7-(2-thienyl)-imidazo[4,5-b]pyridine); dPa'TP insertion Vmax/KM; 10 mM MgCl2 pH 7.5 37C
[2] = biological target: Klenow fragment exo- (KF exo-) (UniProt P00582); details: n=Pa' (4-propynylpyrrole-2-carbaldehyde); dDsTP insertion Vmax/KM; 10 mM MgCl2 pH 7.5 37C
[3] = biological target: Klenow fragment exo- (KF exo-) (UniProt P00582); details: n=Pa (pyrrole-2-carbaldehyde); dDsTP insertion; Vmax/KM as printed (KM 26 uM and Vmax 28 imply 1.1e6); 10 mM MgCl2 pH 7.5 37C

Sequence of Klenow fragment exo- (KF exo-) (P00582 324-928): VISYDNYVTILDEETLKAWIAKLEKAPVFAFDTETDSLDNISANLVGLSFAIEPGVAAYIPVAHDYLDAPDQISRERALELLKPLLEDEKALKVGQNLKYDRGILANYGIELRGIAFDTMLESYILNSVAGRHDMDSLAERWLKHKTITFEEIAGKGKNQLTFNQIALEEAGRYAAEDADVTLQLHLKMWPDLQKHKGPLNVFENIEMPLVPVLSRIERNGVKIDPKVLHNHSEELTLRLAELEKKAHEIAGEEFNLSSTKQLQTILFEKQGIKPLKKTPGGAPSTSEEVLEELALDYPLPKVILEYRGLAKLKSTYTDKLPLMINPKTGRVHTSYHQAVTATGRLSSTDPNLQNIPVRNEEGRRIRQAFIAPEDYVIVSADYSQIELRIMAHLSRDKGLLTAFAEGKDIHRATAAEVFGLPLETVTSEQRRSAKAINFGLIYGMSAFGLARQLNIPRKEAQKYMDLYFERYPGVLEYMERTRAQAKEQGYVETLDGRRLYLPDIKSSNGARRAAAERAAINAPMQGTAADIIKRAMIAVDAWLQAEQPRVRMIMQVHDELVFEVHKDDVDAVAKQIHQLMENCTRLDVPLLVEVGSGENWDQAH

Question: Which activity [1] does the source give for “AGCTCTNTCTTCCTCCCTATAGTGAGTCGTATTAT / ACTCACTATAGGGAGGAAGA [temp35Ds-1/primer]” here?
Answer: 260000 %/min/M

Question: With “TCGAGANAGAAGCTCCCTATAGTGAGTCGTATTAT / ACTCACTATAGGGAGCTTCT [temp35Pa'-2/primer]” as the sequence, how does the activity [2] read?
Answer: 880000 %/min/M

Question: With “TCGAGANAGAAGCTCCCTATAGTGAGTCGTATTAT / ACTCACTATAGGGAGCTTCT [temp35Pa-2/primer]” as the sequence, how does the activity [3] read?
Answer: 11000 %/min/M
